Test [1] addresses recombinant human Fc gamma receptor CD16a 158F (FcRγIIIa) (human, UniProt P08637 17-208).
Test [2] deals with recombinant human Fc gamma receptor CD16a 158V (FcRγIIIa) (human, UniProt P08637 17-208).
Test [3] deals with recombinant human Fc gamma receptor CD16b (FcRγIIIb) (human, UniProt O75015 17-200).
Test [4] deals with T1, recombinant human Fc gamma receptor CD32a 131H (human, UniProt P12318 36-218).
T1 sequence (looked up): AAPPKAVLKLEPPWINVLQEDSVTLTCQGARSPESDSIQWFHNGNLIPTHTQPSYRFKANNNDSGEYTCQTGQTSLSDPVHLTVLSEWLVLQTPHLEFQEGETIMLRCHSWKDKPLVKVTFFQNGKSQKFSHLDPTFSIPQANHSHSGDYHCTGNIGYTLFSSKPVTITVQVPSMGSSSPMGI

The target in test [5] is T2, recombinant human Fc gamma receptor CD32a 131R (human, UniProt P12318 36-218).
T2 sequence (looked up): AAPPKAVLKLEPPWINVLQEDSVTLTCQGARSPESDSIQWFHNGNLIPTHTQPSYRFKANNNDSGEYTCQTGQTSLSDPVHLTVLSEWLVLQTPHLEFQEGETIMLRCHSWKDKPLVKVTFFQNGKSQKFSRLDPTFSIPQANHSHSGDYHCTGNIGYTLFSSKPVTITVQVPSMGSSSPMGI

Test [6] concerns the target T3, recombinant human Fc gamma receptor CD32b/c (human, UniProt P31994 46-217).
T3 sequence (looked up): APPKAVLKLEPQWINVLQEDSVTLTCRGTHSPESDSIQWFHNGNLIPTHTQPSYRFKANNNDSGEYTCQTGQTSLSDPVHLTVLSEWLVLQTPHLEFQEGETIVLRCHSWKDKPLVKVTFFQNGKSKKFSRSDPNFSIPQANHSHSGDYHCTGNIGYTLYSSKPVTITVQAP

The next test has as its target T4, CD20 Lipoparticles (UniProt P11836 1-297).
T4 sequence (looked up): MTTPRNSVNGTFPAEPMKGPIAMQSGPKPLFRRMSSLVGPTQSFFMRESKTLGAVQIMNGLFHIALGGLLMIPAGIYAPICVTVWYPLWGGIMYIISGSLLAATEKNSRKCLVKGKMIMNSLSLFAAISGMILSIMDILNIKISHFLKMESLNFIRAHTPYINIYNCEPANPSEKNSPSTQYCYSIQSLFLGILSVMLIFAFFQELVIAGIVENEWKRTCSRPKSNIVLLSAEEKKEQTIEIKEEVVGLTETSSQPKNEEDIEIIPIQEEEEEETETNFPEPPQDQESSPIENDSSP

Test [7] concerns the target recombinant human Fc gamma receptor CD64 (FcRγI) (human, UniProt P12314 16-288).

Some results are limits rather than exact numbers.

Sequence of recombinant human Fc gamma receptor CD16b (FcRγIIIb) (O75015 17-200 limits assumed): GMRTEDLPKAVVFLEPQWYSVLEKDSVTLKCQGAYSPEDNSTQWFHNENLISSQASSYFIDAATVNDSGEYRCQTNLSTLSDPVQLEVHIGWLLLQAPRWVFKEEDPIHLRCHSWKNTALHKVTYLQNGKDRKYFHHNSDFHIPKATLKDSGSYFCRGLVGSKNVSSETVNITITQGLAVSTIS
Sequence of recombinant human Fc gamma receptor CD16a 158V (FcRγIIIa) (P08637 17-208 F176V limits assumed): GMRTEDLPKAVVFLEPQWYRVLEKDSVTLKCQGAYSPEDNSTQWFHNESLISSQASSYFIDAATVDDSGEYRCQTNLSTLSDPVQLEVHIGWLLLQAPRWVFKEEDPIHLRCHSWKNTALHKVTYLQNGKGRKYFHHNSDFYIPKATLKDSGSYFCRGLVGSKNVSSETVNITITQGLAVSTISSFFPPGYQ
Sequence of recombinant human Fc gamma receptor CD16a 158F (FcRγIIIa) (P08637 17-208 limits assumed): as the sequence (P08637 17-208 F176V limits assumed) above, with V160F counted along it
Sequence of recombinant human Fc gamma receptor CD64 (FcRγI) (P12314 16-288 limits assumed): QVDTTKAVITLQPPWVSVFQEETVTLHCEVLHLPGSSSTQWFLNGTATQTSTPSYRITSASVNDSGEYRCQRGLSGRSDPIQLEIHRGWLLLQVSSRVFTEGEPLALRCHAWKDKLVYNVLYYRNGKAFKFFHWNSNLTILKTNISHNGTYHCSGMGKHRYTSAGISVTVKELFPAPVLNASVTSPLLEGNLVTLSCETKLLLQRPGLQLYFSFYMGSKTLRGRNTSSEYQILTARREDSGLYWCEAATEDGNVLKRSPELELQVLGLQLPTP

B1: Rc66SIDE (One-arm antibody) (antibody, human IgG1, kappa)
light: QIVLSQSPAILSASPGEKVTMTCRASSSVSYIHWFQQKPGSSPKPWIYATSNLASGVPVRFSGSGSGTSYSLTISRVEAEDAATYYCQQWTSNPPTFGGGTKLEIKRTVAAPSVFIFPPSDEQLKSGTASVVCLLNNFYPREAKVQWKVDNALQSGNSQESVTEQDSKDSTYSLSSTLTLSKADYEKHKVYACEVTHQGLSSPVTKSFNRGEC
heavy: QVQLQQPGAELVKPGASVKMSCKASGYTFTSYNMHWVKQTPGRGLEWIGAIYPGNGDTSYNQKFKGKATLTADKSSSTAYMQLSSLTSEDSAVYYCARSTYYGGDWYFNVWGAGTTVTVSAASTKGPSVFPLAPSSKSTSGGTAALGCLVKDYFPEPVTVSWNSGALTSGVHTFPAVLQSSGLYSLSSVVTVPSSSLGTQTYICNVNHKPSNTKVDKKAEPKSCDKTHTCPPCPAPELLGGPDVFLFPPKPKDTLMISRTPEVTCVVVDVSHEDPEVKFNWYVDGVEVHNAKTKPREEQYNSTYRVVSVLTVLHQDWLNGKEYKCKVSNKALPAPEEKTISKAKGQPREPQVYVLPPSRDELTKNQVSLLCLVKGFYPSDIAVEWESNGQPENNYLTWPPVLDSDGSFFLYSKLTVDKSRWQQGNVFSCSVMHEALHNHYTQKSLSLSPGK
chain: CPPCPAPELLGGPDVFLFPPKPKDTLMISRTPEVTCVVVDVSHEDPEVKFNWYVDGVEVHNAKTKPREEQYNSTYRVVSVLTVLHQDWLNGKEYKCKVSNKALPAPEEKTISKAKGQPREPQVYVYPPSRDELTKNQVSLTCLVKGFYPSDIAVEWESNGQPENNYKTTPPVLDSDGSFALVSKLTVDKSRWQQGNVFSCSVMHEALHNHYTQKSLSLSPGK
As a reminder, the Kd is the concentration at which binding is half-saturated. With B1, the Kd in test [1] amounted to 76.8 nM; in test [2] it was 46.2 nM; in test [3], 163 nM; in test [4] it was 255 nM; in test [5], 202 nM; in test [6] it was 253 nM. Also, the Kd in the test with CD20 Lipoparticles was 21400 pM.

B2: Rc66SIDE-P28-Rc66SIDE (antibody, human IgG1, kappa)
light: QIVLSQSPAILSASPGEKVTMTCRASSSVSYIHWFQQKPGSSPKPWIYATSNLASGVPVRFSGSGSGTSYSLTISRVEAEDAATYYCQQWTSNPPTFGGGTKLEIKRTVAAPSVFIFPPSDEQLKSGTASVVCLLNNFYPREAKVQWKVDNALQSGNSQESVTEQDSKDSTYSLSSTLTLSKADYEKHKVYACEVTHQGLSSPVTKSFNRGEC
heavy: QVQLQQPGAELVKPGASVKMSCKASGYTFTSYNMHWVKQTPGRGLEWIGAIYPGNGDTSYNQKFKGKATLTADKSSSTAYMQLSSLTSEDSAVYYCARSTYYGGDWYFNVWGAGTTVTVSAASTKGPSVFPLAPSSKSTSGGTAALGCLVKDYFPEPVTVSWNSGALTSGVHTFPAVLQSSGLYSLSSVVTVPSSSLGTQTYICNVNHKPSNTKVDKKAEPKSCDKTHTCPPCPAPELLGGPDVFLFPPKPKDTLMISRTPEVTCVVVDVSHEDPEVKFNWYVDGVEVHNAKTKPREEQYNSTYRVVSVLTVLHQDWLNGKEYKCKVSNKALPAPEEKTISKAKGQPREPQVYVLPPSRDELTKNQVSLLCLVKGFYPSDIAVEWESNGQPENNYLTWPPVLDSDGSFFLYSKLTVDKSRWQQGNVFSCSVMHEALHNHYTQKSLSLSPGK
chain: CPPCPAPELLGGPDVFLFPPKPKDTLMISRTPEVTCVVVDVSHEDPEVKFNWYVDGVEVHNAKTKPREEQYNSTYRVVSVLTVLHQDWLNGKEYKCKVSNKALPAPEEKTISKAKGQPREPQVYVYPPSRDELTKNQVSLTCLVKGFYPSDIAVEWESNGQPENNYKTTPPVLDSDGSFALVSKLTVDKSRWQQGNVFSCSVMHEALHNHYTQKSLSLSPGK
For B2, the Kd was found to be 6.62 nM in test [1]; 4.98 nM in test [2]; 5.64 nM in test [3]; 5.42 nM in test [4]; 8.11 nM in test [5]; 7.28 nM in test [6]. Also, the Kd was 1.14 nM in test [7] and below 1 pM in the test with CD20 Lipoparticles.

B3: Rc66SIDE-P4-Rc66SIDE (antibody, human IgG1, kappa)
light: QIVLSQSPAILSASPGEKVTMTCRASSSVSYIHWFQQKPGSSPKPWIYATSNLASGVPVRFSGSGSGTSYSLTISRVEAEDAATYYCQQWTSNPPTFGGGTKLEIKRTVAAPSVFIFPPSDEQLKSGTASVVCLLNNFYPREAKVQWKVDNALQSGNSQESVTEQDSKDSTYSLSSTLTLSKADYEKHKVYACEVTHQGLSSPVTKSFNRGEC
heavy: QVQLQQPGAELVKPGASVKMSCKASGYTFTSYNMHWVKQTPGRGLEWIGAIYPGNGDTSYNQKFKGKATLTADKSSSTAYMQLSSLTSEDSAVYYCARSTYYGGDWYFNVWGAGTTVTVSAASTKGPSVFPLAPSSKSTSGGTAALGCLVKDYFPEPVTVSWNSGALTSGVHTFPAVLQSSGLYSLSSVVTVPSSSLGTQTYICNVNHKPSNTKVDKKAEPKSCDKTHTCPPCPAPELLGGPDVFLFPPKPKDTLMISRTPEVTCVVVDVSHEDPEVKFNWYVDGVEVHNAKTKPREEQYNSTYRVVSVLTVLHQDWLNGKEYKCKVSNKALPAPEEKTISKAKGQPREPQVYVLPPSRDELTKNQVSLLCLVKGFYPSDIAVEWESNGQPENNYLTWPPVLDSDGSFFLYSKLTVDKSRWQQGNVFSCSVMHEALHNHYTQKSLSLSPGK
chain: CPPCPAPELLGGPDVFLFPPKPKDTLMISRTPEVTCVVVDVSHEDPEVKFNWYVDGVEVHNAKTKPREEQYNSTYRVVSVLTVLHQDWLNGKEYKCKVSNKALPAPEEKTISKAKGQPREPQVYVYPPSRDELTKNQVSLTCLVKGFYPSDIAVEWESNGQPENNYKTTPPVLDSDGSFALVSKLTVDKSRWQQGNVFSCSVMHEALHNHYTQKSLSLSPGK
Consider B3, for which the Kd was 3.87 nM in test [1]; 1.14 nM in test [2]; 1.05 nM in test [3]; 2.54 nM in test [4]; 4.93 nM in test [5]; 3.17 nM in test [6]. For the same molecule, the Kd in test [7] was below 0.001 nM; with CD20 Lipoparticles it was below 1 pM.

B4: Rc66SIDE-P16-Rc66SIDE (antibody, human IgG1, kappa)
light: QIVLSQSPAILSASPGEKVTMTCRASSSVSYIHWFQQKPGSSPKPWIYATSNLASGVPVRFSGSGSGTSYSLTISRVEAEDAATYYCQQWTSNPPTFGGGTKLEIKRTVAAPSVFIFPPSDEQLKSGTASVVCLLNNFYPREAKVQWKVDNALQSGNSQESVTEQDSKDSTYSLSSTLTLSKADYEKHKVYACEVTHQGLSSPVTKSFNRGEC
heavy: QVQLQQPGAELVKPGASVKMSCKASGYTFTSYNMHWVKQTPGRGLEWIGAIYPGNGDTSYNQKFKGKATLTADKSSSTAYMQLSSLTSEDSAVYYCARSTYYGGDWYFNVWGAGTTVTVSAASTKGPSVFPLAPSSKSTSGGTAALGCLVKDYFPEPVTVSWNSGALTSGVHTFPAVLQSSGLYSLSSVVTVPSSSLGTQTYICNVNHKPSNTKVDKKAEPKSCDKTHTCPPCPAPELLGGPDVFLFPPKPKDTLMISRTPEVTCVVVDVSHEDPEVKFNWYVDGVEVHNAKTKPREEQYNSTYRVVSVLTVLHQDWLNGKEYKCKVSNKALPAPEEKTISKAKGQPREPQVYVLPPSRDELTKNQVSLLCLVKGFYPSDIAVEWESNGQPENNYLTWPPVLDSDGSFFLYSKLTVDKSRWQQGNVFSCSVMHEALHNHYTQKSLSLSPGK
chain: CPPCPAPELLGGPDVFLFPPKPKDTLMISRTPEVTCVVVDVSHEDPEVKFNWYVDGVEVHNAKTKPREEQYNSTYRVVSVLTVLHQDWLNGKEYKCKVSNKALPAPEEKTISKAKGQPREPQVYVYPPSRDELTKNQVSLTCLVKGFYPSDIAVEWESNGQPENNYKTTPPVLDSDGSFALVSKLTVDKSRWQQGNVFSCSVMHEALHNHYTQKSLSLSPGK
For the molecule B4, the Kd in test [1] was 2.71 nM; in test [2] it was 0.257 nM; in test [3], below 0.001 nM; in test [4], 0.808 nM; in test [5], 1.83 nM; in test [6], 0.556 nM. In addition, the Kd in test [7] is below 0.001 nM; in the test with CD20 Lipoparticles it was below 1 pM.

For the origin of these results see patent US20230220115A1 (BIOMOLECULAR, published 2023).
